Experimental data as given in patent US20170067880A1 (Genentech, published 2017).

Assays:
[1] = target: T1, MBP-SD with C-terminal His tag, expressed in S. aureus (UniProt P0AEX9 27-396 = MBP); experiment: Western blot of MBP fusion constructs expressed in S. aureus
T1 construct: mature; One of the small SD peptide constructs, expressed in S. aureus RN4220 delta sortase; not shown: C-terminal His tag

[2] = target: T2, MBP-SDS with C-terminal His tag, expressed in S. aureus (UniProt P0AEX9 27-396 = MBP); experiment: as above
T2 construct: mature; One of the small SD peptide constructs, expressed in S. aureus RN4220 delta sortase; not shown: C-terminal His tag

[3] = target: T3, MBP-DSD with C-terminal His tag, expressed in S. aureus (UniProt P0AEX9 27-396 = MBP); experiment: as above
T3 construct: mature; One of the small SD peptide constructs, expressed in S. aureus RN4220 delta sortase; not shown: C-terminal His tag

[4] = target: T4, E. coli expressed N-terminal Unizyme tagged SdrC, incubated with S. aureus lysate (Staphylococcus aureus (USA300), UniProt Q2FJ79 51-913, modified by incubation with cleared lysate of delta-Pan Sdr mutant Newman S. aureus; modification not identified); experiment: Western blot of NiNta-captured E. coli protein after incubation with S. aureus lysate
T4 construct: mature; Made in E. coli 58F3, purified, captured on NiNta resin, then incubated with S. aureus lysate for 1 hr at 37 C; also called E. coli expressed Sdr protein SdrC; not shown: N-terminal Unizyme tag (ST239 vector, Genentech)

[5] = target: T5, E. coli expressed N-terminal Unizyme tagged SdrD, incubated with S. aureus lysate (Staphylococcus aureus (USA300), UniProt Q2FJ78 36-1347, modified by incubation with cleared lysate of delta-Pan Sdr mutant Newman S. aureus; modification not identified); experiment: as above
T5 construct: mature; Made in E. coli 58F3, purified, captured on NiNta resin, then incubated with S. aureus lysate for 1 hr at 37 C; also called E. coli expressed Sdr protein SdrD; not shown: N-terminal Unizyme tag (ST239 vector, Genentech)

[6] = target: T6, E. coli expressed N-terminal Unizyme tagged SdrE, incubated with S. aureus lysate (Staphylococcus aureus (USA300), UniProt Q2FJ77 53-1120, modified by incubation with cleared lysate of delta-Pan Sdr mutant Newman S. aureus; modification not identified); experiment: as above
T6 construct: mature; Made in E. coli 58F3, purified, captured on NiNta resin, then incubated with S. aureus lysate for 1 hr at 37 C; also called E. coli expressed Sdr protein SdrE; not shown: N-terminal Unizyme tag (ST239 vector, Genentech)
T6 sequence (Q2FJ77 53-1120): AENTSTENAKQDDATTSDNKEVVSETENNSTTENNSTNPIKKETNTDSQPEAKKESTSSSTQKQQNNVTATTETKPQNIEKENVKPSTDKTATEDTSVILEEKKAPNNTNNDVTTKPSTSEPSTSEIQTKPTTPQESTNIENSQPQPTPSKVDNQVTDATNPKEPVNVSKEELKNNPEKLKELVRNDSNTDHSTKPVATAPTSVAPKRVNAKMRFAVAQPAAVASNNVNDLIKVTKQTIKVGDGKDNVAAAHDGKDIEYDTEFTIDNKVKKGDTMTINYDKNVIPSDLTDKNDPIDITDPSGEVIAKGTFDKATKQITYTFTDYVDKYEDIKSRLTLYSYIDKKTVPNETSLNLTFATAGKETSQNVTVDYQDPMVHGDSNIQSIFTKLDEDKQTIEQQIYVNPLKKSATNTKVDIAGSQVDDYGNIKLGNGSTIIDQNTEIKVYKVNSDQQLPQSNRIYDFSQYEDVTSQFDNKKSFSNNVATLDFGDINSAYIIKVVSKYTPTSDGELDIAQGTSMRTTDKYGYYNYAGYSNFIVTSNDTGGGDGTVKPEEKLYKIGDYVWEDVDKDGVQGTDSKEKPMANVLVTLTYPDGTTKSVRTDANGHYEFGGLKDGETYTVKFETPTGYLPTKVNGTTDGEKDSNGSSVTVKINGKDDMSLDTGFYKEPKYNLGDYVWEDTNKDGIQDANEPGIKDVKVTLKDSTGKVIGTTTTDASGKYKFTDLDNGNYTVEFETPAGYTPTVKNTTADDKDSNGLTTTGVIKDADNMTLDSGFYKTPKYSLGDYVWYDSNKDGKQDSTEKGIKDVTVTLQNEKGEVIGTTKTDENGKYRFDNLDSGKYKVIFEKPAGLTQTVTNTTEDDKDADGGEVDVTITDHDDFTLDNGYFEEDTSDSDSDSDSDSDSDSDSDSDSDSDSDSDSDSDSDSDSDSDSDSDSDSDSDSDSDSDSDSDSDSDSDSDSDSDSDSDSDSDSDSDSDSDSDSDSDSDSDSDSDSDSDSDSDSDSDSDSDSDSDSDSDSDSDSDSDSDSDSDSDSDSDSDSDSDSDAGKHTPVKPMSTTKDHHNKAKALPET

T4 sequence (Q2FJ79 51-913): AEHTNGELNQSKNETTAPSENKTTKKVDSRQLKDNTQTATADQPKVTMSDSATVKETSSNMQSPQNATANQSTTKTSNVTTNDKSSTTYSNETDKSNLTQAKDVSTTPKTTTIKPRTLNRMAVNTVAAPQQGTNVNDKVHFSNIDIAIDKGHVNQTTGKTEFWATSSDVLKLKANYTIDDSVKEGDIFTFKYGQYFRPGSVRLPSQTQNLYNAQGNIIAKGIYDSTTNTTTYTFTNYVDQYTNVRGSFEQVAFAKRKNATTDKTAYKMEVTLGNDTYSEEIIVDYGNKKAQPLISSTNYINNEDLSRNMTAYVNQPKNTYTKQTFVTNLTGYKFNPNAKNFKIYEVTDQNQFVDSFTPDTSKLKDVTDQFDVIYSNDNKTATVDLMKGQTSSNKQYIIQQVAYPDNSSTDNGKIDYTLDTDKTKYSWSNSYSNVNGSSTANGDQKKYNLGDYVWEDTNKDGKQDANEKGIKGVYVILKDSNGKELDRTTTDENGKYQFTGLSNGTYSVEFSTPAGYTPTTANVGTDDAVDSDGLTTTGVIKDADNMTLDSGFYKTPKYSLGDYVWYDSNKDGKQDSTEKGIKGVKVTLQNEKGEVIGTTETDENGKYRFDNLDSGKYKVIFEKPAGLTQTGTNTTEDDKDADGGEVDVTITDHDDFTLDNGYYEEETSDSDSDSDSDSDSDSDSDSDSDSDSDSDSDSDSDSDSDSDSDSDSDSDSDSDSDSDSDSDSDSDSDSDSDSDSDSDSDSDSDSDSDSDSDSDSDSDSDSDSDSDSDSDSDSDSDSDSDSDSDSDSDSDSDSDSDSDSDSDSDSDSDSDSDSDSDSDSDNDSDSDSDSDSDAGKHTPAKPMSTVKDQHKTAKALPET
T5 sequence (Q2FJ78 36-1347): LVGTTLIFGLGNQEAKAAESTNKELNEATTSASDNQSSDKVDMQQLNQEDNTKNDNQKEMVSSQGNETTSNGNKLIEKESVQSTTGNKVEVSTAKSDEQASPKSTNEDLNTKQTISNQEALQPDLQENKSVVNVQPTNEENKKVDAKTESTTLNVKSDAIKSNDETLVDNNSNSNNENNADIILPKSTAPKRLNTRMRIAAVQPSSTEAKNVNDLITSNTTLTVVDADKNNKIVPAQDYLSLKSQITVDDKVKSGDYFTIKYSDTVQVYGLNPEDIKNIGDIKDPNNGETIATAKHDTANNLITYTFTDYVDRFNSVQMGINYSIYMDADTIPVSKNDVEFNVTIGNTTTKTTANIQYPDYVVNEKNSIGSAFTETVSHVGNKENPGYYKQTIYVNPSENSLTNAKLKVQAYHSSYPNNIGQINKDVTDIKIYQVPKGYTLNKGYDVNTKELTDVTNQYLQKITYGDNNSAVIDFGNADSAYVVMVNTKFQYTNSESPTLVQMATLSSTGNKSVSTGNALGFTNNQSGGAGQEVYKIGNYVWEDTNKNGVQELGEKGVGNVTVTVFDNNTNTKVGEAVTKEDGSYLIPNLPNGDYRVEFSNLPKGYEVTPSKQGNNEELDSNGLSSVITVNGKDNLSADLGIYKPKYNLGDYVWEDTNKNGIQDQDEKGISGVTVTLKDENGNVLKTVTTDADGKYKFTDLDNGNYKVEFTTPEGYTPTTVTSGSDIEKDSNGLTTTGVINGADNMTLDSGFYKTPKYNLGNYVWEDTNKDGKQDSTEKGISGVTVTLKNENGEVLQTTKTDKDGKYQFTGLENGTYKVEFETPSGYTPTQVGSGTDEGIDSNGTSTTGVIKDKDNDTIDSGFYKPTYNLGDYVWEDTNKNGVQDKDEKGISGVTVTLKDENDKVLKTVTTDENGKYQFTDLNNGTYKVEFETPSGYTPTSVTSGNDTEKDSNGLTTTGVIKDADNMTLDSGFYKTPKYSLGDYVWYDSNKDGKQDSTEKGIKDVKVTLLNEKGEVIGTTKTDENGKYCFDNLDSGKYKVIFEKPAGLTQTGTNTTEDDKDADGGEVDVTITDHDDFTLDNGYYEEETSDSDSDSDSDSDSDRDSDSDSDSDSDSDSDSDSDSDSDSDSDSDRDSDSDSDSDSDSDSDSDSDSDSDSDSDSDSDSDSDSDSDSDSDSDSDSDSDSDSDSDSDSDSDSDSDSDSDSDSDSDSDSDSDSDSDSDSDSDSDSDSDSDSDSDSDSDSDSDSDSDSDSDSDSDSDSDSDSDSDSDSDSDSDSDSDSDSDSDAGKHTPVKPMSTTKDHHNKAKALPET

B1: antibody F1 (antibody, V domains shown)
VH: EVQLLESGGGLVQPGGSLRLSCAASGFTLSRFAMSWVRQAPGRGLEWVASINNGNNPYYARSVQYRFTVSRDVSQNTVSLQMNNLRAEDSATYFCAKDHPSSGWPTFDSWGPGTLVTVSS
VL: DIQLTQSPSALPASVGDRVSITCRASENVGDWLAWYRQKPGKAPNLLIYKTSILESGVPSRFSGSGSGTEFTLTISSLQPDDFATYYCQHYIRFPYTFGQGTKLEIKR
notes: also called rF1; recombinant F1
[1]
  binding result: no binding
[2]
  binding result: no binding
[3]
  binding result: no binding
[4]
  binding result: binds
[5]
  binding result: binds
[6]
  binding result: binds
